In patent publication US20250320281A1:

Experiments:
Assay in all cases: cell-based or functional assay
[1] = biological target: HIV-1 Env of isolate 92RW008 (pseudovirus) (HIV-1)
[2] = biological target: HIV-1 Env of isolate 92TH021 (pseudovirus) (HIV-1)
[3] = biological target: HIV-1 Env of isolate 92UG031 (pseudovirus) (HIV-1)
[4] = biological target: HIV-1 Env of isolate 92UG037 (pseudovirus) (HIV-1)
[5] = biological target: HIV-1 Env of isolate 92WR009 (pseudovirus) (HIV-1)
[6] = biological target: HIV-1 Env of isolate 92WR020 (pseudovirus) (HIV-1)
[7] = biological target: HIV-1 Env of isolate 92WR021 (pseudovirus) (HIV-1)
[8] = biological target: HIV-1 Env of isolate 92WR024 (pseudovirus) (HIV-1)
[9] = biological target: HIV-1 Env of isolate 92WR026 (pseudovirus) (HIV-1)
[10] = biological target: HIV-1 Env of isolate 93UG077 (pseudovirus) (HIV-1)
[11] = biological target: HIV-1 Env of isolate 93WR029 (pseudovirus) (HIV-1)
[12] = biological target: HIV-1 Env of isolate 94KE105 (pseudovirus) (HIV-1)
[13] = biological target: HIV-1 Env of isolate 94UG103 (pseudovirus) (HIV-1)
[14] = biological target: HIV-1 Env of isolate CMU02 (pseudovirus) (HIV-1)
[15] = biological target: HIV-1 Env of isolate MGRM-A-001 (pseudovirus) (HIV-1)
[16] = biological target: HIV-1 Env of isolate MGRM-A-002 (pseudovirus) (HIV-1)
[17] = biological target: HIV-1 Env of isolate MGRM-A-003 (pseudovirus) (HIV-1)
[18] = biological target: HIV-1 Env of isolate MGRM-A-004 (pseudovirus) (HIV-1)
[19] = biological target: HIV-1 Env of isolate MGRM-A-005 (pseudovirus) (HIV-1)
[20] = biological target: HIV-1 Env of isolate MGRM-A-006 (pseudovirus) (HIV-1)
[21] = biological target: HIV-1 Env of isolate MGRM-A-007 (pseudovirus) (HIV-1)
[22] = biological target: HIV-1 Env of isolate MGRM-A-008 (pseudovirus) (HIV-1)
[23] = biological target: HIV-1 Env of isolate MGRM-A-009 (pseudovirus) (HIV-1)
[24] = biological target: HIV-1 Env of isolate MGRM-A-010 (pseudovirus) (HIV-1)
[25] = biological target: HIV-1 Env of isolate MGRM-A-011 (pseudovirus) (HIV-1)
[26] = biological target: HIV-1 Env of isolate MGRM-A-012 (pseudovirus) (HIV-1)
[27] = biological target: HIV-1 Env of isolate MGRM-A-013 (pseudovirus) (HIV-1)
[28] = biological target: HIV-1 Env of isolate MGRM-A-014 (pseudovirus) (HIV-1)
[29] = biological target: HIV-1 Env of isolate MGRM-AE-001 (pseudovirus) (HIV-1)
[30] = biological target: HIV-1 Env of isolate MGRM-AE-002 (pseudovirus) (HIV-1)
[31] = biological target: HIV-1 Env of isolate MGRM-AE-003 (pseudovirus) (HIV-1)
[32] = biological target: HIV-1 Env of isolate VLGCA1 (pseudovirus) (HIV-1)
[33] = biological target: HIV-1 Env of isolate MG RM-D-011 (HIV-1)
[34] = biological target: HIV-1 Env of isolate MG RM-D-012 (HIV-1)
[35] = biological target: HIV-1 Env of isolate MG RM-D-013 (HIV-1)
[36] = biological target: HIV-1 Env of isolate MG RM-D-014 (HIV-1)
[37] = biological target: HIV-1 Env of isolate MG RM-D-016 (HIV-1)
[38] = biological target: HIV-1 Env of isolate MG RM-D-018 (HIV-1)
[39] = biological target: HIV-1 Env of isolate MG RM-D-019 (HIV-1)
[40] = biological target: HIV-1 Env of isolate MG RM-D-020 (HIV-1)
[41] = biological target: HIV-1 Env of isolate MG RM-D-021 (HIV-1)
[42] = biological target: HIV-1 Env of isolate MG RM-D-022 (HIV-1)
[43] = biological target: HIV-1 Env of isolate MG RM-D-024 (HIV-1)
[44] = biological target: HIV-1 Env of isolate MG RM-D-026 (HIV-1)
[45] = biological target: HIV-1 Env of isolate MG RM-D-028 (HIV-1)
[46] = biological target: HIV-1 Env of isolate MG RM-D-029 (HIV-1)
[47] = biological target: HIV-1 Env of isolate MGRM-Chronic-B-012 (HIV-1)
[48] = biological target: HIV-1 Env of isolate MGRM-F1-004 (HIV-1)
[49] = biological target: HIV-1 Env of isolate MGRM-F1-006 (HIV-1)
[50] = biological target: HIV-1 Env of isolate MGRM-F1-008 (HIV-1)
[51] = biological target: HIV-1 Env of isolate MGRM-F1-010 (HIV-1)
[52] = biological target: HIV-1 Env of isolate MGRM-F1-012 (HIV-1)
[53] = biological target: HIV-1 Env of isolate MGRM-F1-013 (HIV-1)
[54] = biological target: HIV-1 Env of isolate MGRM-F1-014 (HIV-1)
[55] = biological target: HIV-1 Env of isolate MGRM-F1-015 (HIV-1)
[56] = biological target: HIV-1 Env of isolate MGRM-F1-016 (HIV-1)
[57] = biological target: HIV-1 Env of isolate MGRM-F1-017 (HIV-1)
[58] = biological target: HIV-1 Env of isolate MGRM-F1-018 (HIV-1)
[59] = biological target: HIV-1 Env of isolate MGRM-F1-020 (HIV-1)
[60] = biological target: HIV-1 Env of isolate MGRM-F1-021 (HIV-1)
[61] = biological target: HIV-1 Env of isolate MGRM-F1-022 (HIV-1)
[62] = biological target: HIV-1 Env of isolate MGRM-F1-023 (HIV-1)
[63] = biological target: HIV-1 Env of pseudovirus MGRM-AE-007 (subtype AE) (HIV-1)
[64] = biological target: HIV-1 Env of pseudovirus MGRM-AE-008 (subtype AE) (HIV-1)
[65] = biological target: HIV-1 Env of pseudovirus MGRM-AG-001 (subtype AG) (HIV-1)
[66] = biological target: HIV-1 Env of pseudovirus MGRM-AG-002 (subtype AG) (HIV-1)
[67] = biological target: HIV-1 Env of pseudovirus MGRM-AG-003 (subtype AG) (HIV-1)
[68] = biological target: HIV-1 Env of pseudovirus MGRM-AG-005 (subtype AG) (HIV-1)
[69] = biological target: HIV-1 Env of pseudovirus MGRM-AG-006 (subtype AG) (HIV-1)
[70] = biological target: HIV-1 Env of pseudovirus MGRM-AG-008 (subtype AG) (HIV-1)
[71] = biological target: HIV-1 Env of pseudovirus MGRM-AG-009 (subtype AG) (HIV-1)
[72] = biological target: HIV-1 Env of pseudovirus MGRM-AG-011 (subtype AG) (HIV-1)
[73] = biological target: HIV-1 Env of pseudovirus MGRM-AG-012 (subtype AG) (HIV-1)
[74] = biological target: HIV-1 Env of pseudovirus MGRM-AG-013 (subtype AG) (HIV-1)

Chain of PGT-145 (4995_P16) (antibody) (VH): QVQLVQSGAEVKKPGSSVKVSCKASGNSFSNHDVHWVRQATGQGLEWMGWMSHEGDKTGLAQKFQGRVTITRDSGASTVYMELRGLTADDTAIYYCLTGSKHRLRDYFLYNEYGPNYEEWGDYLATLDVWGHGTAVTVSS
Chain of PGT-145 (4995_P16) (antibody) (VL): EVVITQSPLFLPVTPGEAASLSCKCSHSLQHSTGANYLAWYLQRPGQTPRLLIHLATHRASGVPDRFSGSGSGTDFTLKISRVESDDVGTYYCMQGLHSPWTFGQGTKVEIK

## PGT-122 (4877_D15) (antibody)
[1]
  IC50 (µg/mL), pseudovirus neutralization: 0.003 µg/mL
[2]
  IC50 (µg/mL), pseudovirus neutralization: > 50 µg/mL
[3]
  IC50 (µg/mL), pseudovirus neutralization: > 50 µg/mL
[4]
  IC50 (µg/mL), pseudovirus neutralization: 0.068 µg/mL
[5]
  IC50 (µg/mL), pseudovirus neutralization: 42.4 µg/mL
[6]
  IC50 (µg/mL), pseudovirus neutralization: 0.009 µg/mL
[7]
  IC50 (µg/mL), pseudovirus neutralization: 0.021 µg/mL
[8]
  IC50 (µg/mL), pseudovirus neutralization: > 50 µg/mL
[9]
  IC50 (µg/mL), pseudovirus neutralization: 0.036 µg/mL
[10]
  IC50 (µg/mL), pseudovirus neutralization: 0.084 µg/mL
[11]
  IC50 (µg/mL), pseudovirus neutralization: > 50 µg/mL
[12]
  IC50 (µg/mL), pseudovirus neutralization: 0.056 µg/mL
[13]
  IC50 (µg/mL), pseudovirus neutralization: 2.04 µg/mL
[14]
  IC50 (µg/mL), pseudovirus neutralization: > 50 µg/mL
[15]
  IC50 (µg/mL), pseudovirus neutralization: > 50 µg/mL
[16]
  IC50 (µg/mL), pseudovirus neutralization: 0.017 µg/mL
[17]
  IC50 (µg/mL), pseudovirus neutralization: 3.79 µg/mL
[18]
  IC50 (µg/mL), pseudovirus neutralization: > 50 µg/mL
[19]
  IC50 (µg/mL), pseudovirus neutralization: > 50 µg/mL
[20]
  IC50 (µg/mL), pseudovirus neutralization: > 50 µg/mL
[21]
  IC50 (µg/mL), pseudovirus neutralization: > 50 µg/mL
[22]
  IC50 (µg/mL), pseudovirus neutralization: > 50 µg/mL
[23]
  IC50 (µg/mL), pseudovirus neutralization: 0.012 µg/mL
[24]
  IC50 (µg/mL), pseudovirus neutralization: 2.51 µg/mL
[25]
  IC50 (µg/mL), pseudovirus neutralization: > 50 µg/mL
[26]
  IC50 (µg/mL), pseudovirus neutralization: 0.257 µg/mL
[27]
  IC50 (µg/mL), pseudovirus neutralization: 2.47 µg/mL
[28]
  IC50 (µg/mL), pseudovirus neutralization: 0.007 µg/mL
[29]
  IC50 (µg/mL), pseudovirus neutralization: > 50 µg/mL
[30]
  IC50 (µg/mL), pseudovirus neutralization: > 50 µg/mL
[31]
  IC50 (µg/mL), pseudovirus neutralization: > 50 µg/mL
[32]
  IC50 (µg/mL), pseudovirus neutralization: > 50 µg/mL

## PGT-145 (4995_P16) (antibody)
[33]
  IC50: 14.7 µg/mL
[34]
  IC50: > 50 µg/mL
[35]
  IC50: 3.48 µg/mL
[36]
  IC50: 2.51 µg/mL
[37]
  IC50: > 50 µg/mL
[38]
  IC50: 0.065 µg/mL
[39]
  IC50: 0.111 µg/mL
[40]
  IC50: 10 µg/mL
[41]
  IC50: > 50 µg/mL
[42]
  IC50: 34.3 µg/mL
[43]
  IC50: 0.224 µg/mL
[44]
  IC50: 0.41 µg/mL
[45]
  IC50: 0.721 µg/mL
[46]
  IC50: 0.03 µg/mL
[47]
  IC50, pseudovirus neutralization: 9.06 µg/mL
[48]
  IC50: 0.361 µg/mL
[49]
  IC50: 13.6 µg/mL
[50]
  IC50: 0.228 µg/mL
[51]
  IC50: 3.32 µg/mL
[52]
  IC50: 0.113 µg/mL
[53]
  IC50: 0.402 µg/mL
[54]
  IC50: 0.009 µg/mL
[55]
  IC50: 1.76 µg/mL
[56]
  IC50: 17.5 µg/mL
[57]
  IC50: 0.286 µg/mL
[58]
  IC50: 1.02 µg/mL
[59]
  IC50: 0.816 µg/mL
[60]
  IC50: 8.04 µg/mL
[61]
  IC50: 0.009 µg/mL
[62]
  IC50: 5.88 µg/mL
[63]
  IC50, pseudovirus neutralization: 0.181 µg/mL
[64]
  IC50, pseudovirus neutralization: 1.46 µg/mL
[65]
  IC50, pseudovirus neutralization: 0.164 µg/mL
[66]
  IC50, pseudovirus neutralization: 0.056 µg/mL
[67]
  IC50, pseudovirus neutralization: > 50 µg/mL
[68]
  IC50, pseudovirus neutralization: 0.045 µg/mL
[69]
  IC50, pseudovirus neutralization: 6.6 µg/mL
[70]
  IC50, pseudovirus neutralization: 0.244 µg/mL
[71]
  IC50, pseudovirus neutralization: > 50 µg/mL
[72]
  IC50, pseudovirus neutralization: 0.003 µg/mL
[73]
  IC50, pseudovirus neutralization: > 50 µg/mL
[74]
  IC50, pseudovirus neutralization: 14.4 µg/mL
